Test results from paper PMC3172050, “Structural and functional properties of NH2-terminal domain, core domain, and COOH-terminal extension of αA- and αB-crystallins” (Molecular Vision, 2011).

Key:
[1] = target: the molecule itself; assay: SEC-MALS; multiangle laser light scattering instrument (Wyatt) coupled to an HPLC system, called dynamic light scattering (MALS) by the paper; samples in 50 mM sodium phosphate pH 7.8, filtered through 0.22 um; 18 angles; absolute molar mass of each protein alone
[2] = target: the molecule itself; assay: SDS-PAGE with western blot (anti-His tag antibody); purified His-tagged WT αB on an SDS-PAGE gel; 50 kDa band beside the monomer, both immunoreactive with the anti-His antibody

B1: αB-crystallin core domain (residues 67-146) (domain or fragment, human, UniProt P02511 67-146, looked up)
chain: EMRLEKDRFSVNLDVKHFSPEELKVKVLGDVIEVHGKHEERQDEHGFISREFHRKYRIPADVDPLTITSSLSSDGVLTVN
notes: human αB-crystallin, core domain, residues 67-146; The pET 100D TOPO vector may add further N-terminal residues besides the His-tag; also called αB CD; not shown: His6, N-terminal, kept
B1: binds [1].

B2: αB-crystallin NH2-terminal domain (residues 1-66) (domain or fragment, human, UniProt P02511 1-66, looked up)
chain: MDIAIHHPWIRRPFFPFHSPSRLFDQFFGEHLLESDLFPTSTSLSPFYLRPPSFLRAPSWFDTGLS
notes: human αB-crystallin, NH2-terminal domain, residues 1-66; The pET 100D TOPO vector may add further N-terminal residues besides the His-tag; also called αB NTD; not shown: His6, N-terminal, kept
B2: binds [1].

B3: wild type αB-crystallin (natural protein, human, UniProt P02511 1-175, looked up)
chain: MDIAIHHPWIRRPFFPFHSPSRLFDQFFGEHLLESDLFPTSTSLSPFYLRPPSFLRAPSWFDTGLSEMRLEKDRFSVNLDVKHFSPEELKVKVLGDVIEVHGKHEERQDEHGFISREFHRKYRIPADVDPLTITSSLSSDGVLTVNGPRKQVSGPERTIPITREEKPAVTAAPKK
notes: human αB-crystallin, wild type; Subcloned into pET 100D TOPO; the vector may add further N-terminal residues besides the His-tag; also called WT αB; not shown: His6, N-terminal, kept
For B3, the “stoichiometry N” value [2] was 2.
